No end group written: not given here. OP = not defined here

For the assay, the target named is monoclonal antibody depY (mouse). Kind of assay: SPR. (In general: Surface plasmon resonance follows binding to a sensor surface in real time, without labels.)

B1: LYGLPR-OP (peptide)
peptide: LYGLPR-{OP}
modifications: reading uncertain; also: printed as LYGLPR-OP
On to B1, for which the Kd amounted to 12 nM.

B2: PPYRM-OP (peptide)
peptide: PPYRM-{OP}
modifications: reading uncertain; also: printed as PPYRM-OP
In turn, B2 showed a Kd of 360 nM.

For orientation: Kd means the concentration at which binding is half-saturated. A low value points to a tighter complex.

For the origin of these results see paper PMC6006506.
